Data set [1] has as its system adipocytes in the adipose tissue of AIM-/- mice. The data set can be described thus: Endocytosis of injected rAIM into adipose tissue of AIM-/- mice (histology). The format is in vivo, mouse. The conditions noted are these: 3 hours. The procedure:
Further, mouse rAIM was directly injected into epididymal adipose tissue in obese AIM^−/− mice, and the adipose tissue was histologically analyzed. That is, total 100 μg of rAIM was directly injected into several sites of the epididymal adipose tissue. At 3 hours after the injection, tissue sections from the epididymal adipose tissue were made, and the tissue sections were stained with the anti-AIM antibody and the anti-macrophage antibody.
In addition, rAIM was systemically administered by intravenous injection to AIM^−/− mice, and subsequently adipose tissues were histologically analyzed. That is, 200 μg of rAIM was systemically administered by the intravenous injection to the AIM^−/− mice. At 3 hours after the injection, tissue sections were made from the epididymal adipose tissue, and the tissue sections were stained with the anti-AIM antibody and the anti-macrophage antibody.

Data set [2] relates to AIM-/- mice. The data set can be described thus: Intraperitoneal rAIM in AIM-/- mice given HFD. The format is in vivo, mouse. The procedure: While giving HFD to AIM^−/− mice for 15 weeks, mouse rAIM was intraperitoneally injected into the AIM^−/− mice for the last 9 weeks to examine whether the administration of rAIM inhibits the increase of the adipose tissue mass. That is, rAIM was intraperitoneally injected three times a week into the AIM^−/− mice ((150 μg/injection/mouse)×(three times/week)=(450 μg/mouse/week)) over the last 9 weeks, and the body weight, the weight of the visceral fat, and the weight of the subcutaneous fat were measured in the 15th week. The body weight, the weight of the visceral fat, and the weight of the subcutaneous fat were also measured in the AIM^−/− mice as the control to which BSA (bovine serum albumin) had been intraperitoneally administered in the same administration schedule.
FIG. 30A, FIG. 30B, and FIG. 30C show the results (n=3) of measuring the body weight (Body) (g), the weight of the visceral adipose tissue (Visceral fat) (g), and the amount of the subcutaneous adipose tissue (Subcutaneous fat) (g) in the AIM/mice to which BSA was administered (BSA) and the AIM^−/− mice to which rAIM was administered (rAIM), respectively.
Further, mRNA levels of FSP27, perilipin, and adipophilin were evaluated in each of the AIM^−/− mice to which BSA was administered and the AIM^−/− mice to which rAIM was administered. The mRNA levels were measured using RNA isolated from epididymal fat and using QPCR.
FIG. 31 illustrates the mRNA levels (n=3) of FSP27, perilipin, and adipophilin evaluated in each of the AIM^−/− mice to which BSA was administered (BSA) and the AIM^−/− mice to which rAIM was administered (rAIM). It should be noted that values illustrated in FIG. 31 were normalized to GAPDH and represented as expressions relative to the results in the mice to which BSA had been injected.

Data set [3] deals with FAS domains. The data set can be described thus: Co-immunoprecipitation of FLAG-tagged FAS regions with HA-tagged AIM in HEK293T cells. The class given is binding. The conditions noted are these: HA-tagged mouse AIM. An excerpt:
Further, it was attempted to map a binding region of FAS to AIM. FAS has the following distinct seven functional domains, i.e., ketoacyl synthase (KS), malonyl/acetyl transferase (MAT), dehydrase (DH), enoylreductase (ER), ketoreductase (KR), acyl carrier protein (ACP), and thioesterase (TE), as illustrated in FIG. 34A. There is a central core (CC) between the DH domain and the ER domain. It is believed that the central core has no known catalytic function and plays a structural role in stabilization of the dimer. FIG. 34A illustrates FAS dimerized through head-to-tail interaction and major functions of its respective regions.
Thus, an association of each region in FAS tagged with FLAG with AIM tagged with HA was examined by a co-precipitation study. That is, each domain from FAS tagged with FLAG at the N terminus was expressed in HEK293T cells in which mouse AIM tagged with HA was stably expressed. Then, the association of each region with AIM was examined by a co-immunoprecipitation study using an anti-FLAG antibody and an anti-HA antibody. However, AIM was not bound to an N terminal region including the KS and MAT domains (see FIG. 34A) involved in initial acyl chain assembly (i.e., condensation of acetyl group and malonyl group to 3-ketobutyryl-ACP associated with release of carbon dioxide). Therefore, it was thought that AIM affected elongation of a fatty acid chain (which involves ER and DH) and the release of synthesized palmitate (which depends on TE). Over-expression of ER or KR led to death of many cells. This caused the reduction of the signals in WB using the cell lysates of them [lower panel in FIG. 34B, lanes: ER and KR).

Data set [4] deals with 3T3-L1 preadipocytes. Nature of the data set: Differentiation of 3T3-L1 preadipocytes into mature adipocytes, oil-red-o staining. The format is cell-based, mouse. The conditions noted are these: AIM concentration reduced to 1 μg/mL and 0.1 μg/mL; data not shown.
Data set [5] concerns 3T3-L1 cells. The data set can be described thus: Endocytosis of AIM into differentiated 3T3-L1 cells (confocal and immunoelectron microscopy). The class given is cell-based, mouse. The procedure: Subsequently, the cells were collected, and intracellularly stained using an anti-AIM antibody. Further, nuclei in the cells were stained using DAPI.
FIG. 16A and FIG. 16B show immunoelectron micrographs of the cells cultured for 3 hours (3 hr) and 12 hours (overnight) after being loaded with AIM, respectively.

Data set [6] deals with AIM-/- macrophages. The conditions noted are these: AIM-/- macrophages loaded with recombinant AIM molecules; Document 1; cited from earlier work.
For data set [7], the target named is T1, mouse CD36 (Mus musculus, UniProt Q08857).
T1 construct: expressed in transfected cells; host or cells: HEK293 (called HEK293T)
T1 sequence (Q08857 whole entry): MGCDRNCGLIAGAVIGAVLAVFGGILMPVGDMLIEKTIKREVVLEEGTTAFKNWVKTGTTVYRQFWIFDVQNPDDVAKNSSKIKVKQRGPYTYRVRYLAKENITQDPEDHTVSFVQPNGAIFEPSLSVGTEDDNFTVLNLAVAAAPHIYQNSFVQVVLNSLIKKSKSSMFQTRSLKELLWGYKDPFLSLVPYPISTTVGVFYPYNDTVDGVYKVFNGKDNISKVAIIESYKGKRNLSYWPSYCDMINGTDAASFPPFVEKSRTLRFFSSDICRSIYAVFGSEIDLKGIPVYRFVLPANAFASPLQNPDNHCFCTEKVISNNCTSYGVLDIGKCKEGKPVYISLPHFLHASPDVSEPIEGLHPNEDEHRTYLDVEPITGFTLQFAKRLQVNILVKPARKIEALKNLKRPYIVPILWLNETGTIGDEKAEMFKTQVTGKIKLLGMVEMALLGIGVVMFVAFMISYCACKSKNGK
Nature of the data set: Binding of AIM to CD36-overexpressing HEK293 cells (confocal microscopy). The conditions noted are these: HEK293 cells overexpressing FLAG-tagged mouse CD36, cultured with mouse AIM for 3 hours. The procedure:
CD36 is a twice-transmembrane-type molecule, is expressed on adipocytes and macrophages, and is involved in intracellular internalization of many molecules including fatty acids, LDL, and the like. Thus, HEK293 cells in which mouse CD36 fused with a FLAG-tag at its C terminus was overexpressed were produced, and the cells were cultured with mouse AIM for 3 hours. Subsequently, the cells were collected, stained using an anti-AIM antibody and an anti-CD36 antibody, and observed under a confocal microscope.

The mark [8] stands for this setting: epididymal fat, QPCR, rAIM ip versus BSA.
Where [9] appears, read: mouse rAIM ip 150 μg/injection/mouse, three times/week, last 9 of 15 weeks HFD, versus BSA.

B1: mouse AIM: protein consisting of the amino acid sequence shown in SEQ ID NO: 5; recombinant, purified from HEK293T culture supernatant (protein)
chain: MAPLFNLMLAILSIFVGSCFSESPTKVQLVGGAHRCEGRVEVEHNGQWGTVCDDGWDRRDVAVVCRELNCGAVIQTPRGASYQPPASEQRVLIQGVDCNGTEDTLAQCELNYYVFDCSHEEDAGAQCENPDSDLLFIPEDVRLVDGPGHCQGRVEVLHQSQWSTVCKAGWNLQVSKVVCRQLGCGRALLTYGSCNKNTQGKGPIWMGKMSCSGQEANLRSCLLSRLENNCTHGEDTWMECEDPFELKLVGGDTPCSGRLEVLHKGSWGSVCDDNWGEKEDQVVCKQLGCGKSLHPSPKTRKIYGPGAGRIWLDDVNCSGKEQSLEFCRHRLWGYHDCTHKEDVEVICTDFDV
modifications: mouse
notes: recombinant, purified from HEK293T culture supernatant
As for B1, in data set [1] (200 μg rAIM intravenous injection), the “staining of macrophages in the adipose tissues with the anti-AIM antibody” value is “also stained”. For the same molecule, the “signals from the endocytosed rAIM in the adipocytes in the adipose tissues” value in data set [1] (200 μg rAIM intravenous injection, levels lower than after direct injection) was “detected”. Also, the “endocytosis of exogenous rAIM into adipocytes in the adipose tissue” value in data set [1] (total 100 μg mouse rAIM directly injected into epididymal adipose tissue of obese AIM-/- mice) was “endocytosed into adipocytes”. In addition, in data set [2] (setting [8]), the “mRNA level of FSP27” value is listed as “low”, the “mRNA level of adipophilin” value is on record as “low” and the “mRNA level of perilipin” value is on record as “low”. For the same molecule, in data set [2] (setting [9]), the body weight gain entry was “remarkably small”, the “increase in weight of the subcutaneous fat” value is “remarkably small” and the “increase in weight of the visceral fat” value is “remarkably small”.

B2: AIM: apoptosis inhibitor of macrophage, secretory protein with three SRCR domains; recombinant mouse and human AIM in Example 2, mouse AIM in Examples 3-16 (protein)
chain: ESPTKVQLVGGAHRCEGRVEVEHNGQWGTVCDDGWDRRDVAVVCRELNCGAVIQTPRGASYQPPASEQRVLIQGVDCNGTEDTLAQCELNYYVFDCSHEEDAGAQCENPDSDLLFIPEDVRLVDGPGHCQGRVEVLHQSQWSTVCKAGWNLQVSKVVCRQLGCGRALLTYGSCNKNTQGKGPIWMGKMSCSGQEANLRSCLLSRLENNCTHGEDTWMECEDPFELKLVGGDTPCSGRLEVLHKGSWGSVCDDNWGEKEDQVVCKQLGCGKSLHPSPKTRKIYGPGAGRIWLDDVNCSGKEQSLEFCRHRLWGYHDCTHKEDVEVICTDFDV
With B2, in data set [3] (FLAG-tagged domain), the “binding to the CC (central core) domain of FAS” value is “specifically bound”, the “binding to the DH domain of FAS” value is “specifically bound”, the “binding to the ER domain of FAS” value is reported as “specifically bound” and the “binding to the TE domain of FAS” value is reported as “specifically bound”. Besides, the “binding to the N terminal region of FAS including the KS and MAT domains” value in data set [3] (FLAG-tagged region) is listed as “not bound”. The “differentiation inhibitory effect by AIM” value in data set [4] is “reduced”. Further, the “localisation of AIM, immunoelectron microscope” value in data set [5] (cells cultured in the presence of AIM for 3 hours) is “accumulated like the dots on the membrane of particles thought to be endosomes”. Further, the “localisation of AIM, immunoelectron microscope” value in data set [5] (cells cultured in the presence of AIM for 12 hours) is on record as “migrated therefrom into the cytoplasm”. Further, the “accumulation of AIM on phagosomes, phagolysosomes, or mitochondria” value in data set [5] (immunoelectron microscope) is reported as “No AIM was accumulated”. For the same molecule, the “endocytosis of AIM into the cytoplasm, confocal microscope” value in data set [5] (mouse AIM 5 μg/mL, 3 hours, day 4 of culture) was “endocytosed like dots”. Also, in data set [6], the “resistance to the apoptosis” value is given as “enhanced”. The “binding of AIM to sites at which CD36 was expressed on the cells” value in data set [7] was “had been bound to sites”.

Source of the values: patent publication US8591913B2, “Methods of decreasing adipose tissue” (Toru Miyazaki, priority 2009, dated 2013).
